Assay [1] has as its target HLA-A*02:06. As to the kind of experiment: IEDB peptide-MHC binding, purified MHC/competitive/radioactivity; filed as Kd, often an IC50 or EC50 that approximates it; ≥ and ≤ were set here for values at or beyond the usual limits of such assays.
For assay [2], the target named is HLA-A*02:02. Described as above.
The target of assay [3] is HLA-A*02:03. The description is as above.
Assay [4] has as its target HLA-A*03:01. As to the kind of experiment: IEDB peptide-MHC binding, purified MHC/direct/fluorescence; filed as Kd, often an IC50 or EC50 that approximates it; ≥ and ≤ were set here for values at or beyond the usual limits of such assays.
Where [5] appears, read: source organism: Vaccinia virus WR.
The mark [6] stands for this setting: source organism: SARS coronavirus Tor2.
Where [7] appears, read: source organism: Dengue virus 1 Brazil/97-11/1997.
[8] abbreviates: source organism: Mammarenavirus guanaritoense.
The mark [9] stands for this setting: source organism: Vaccinia virus Copenhagen.

A word on the Kd: it is the free concentration of one partner at which half of the binding sites on the other are occupied at equilibrium, for simple one-to-one binding.

With AAVTLNRIKI, the values for the Kd in assay [1] (setting [5]), in assay [2] (setting [5]) and in assay [3] (setting [5]) were 1.92 µM, 0.83 µM and 3.49 µM, respectively.

Consider AVTLNRIKIA, for which the Kd came to 2.29 µM in assay [1] (setting [5]), 1.72 µM in assay [2] (setting [5]) and 1.29 µM in assay [3] (setting [5]).

Regarding CTINVNSLA, the Kd in assay [1] (setting [5]) amounted to 0.248 µM; in assay [2] (setting [5]) it was 1.04 µM; in assay [3] (setting [5]), 1.61 µM.

As to DMLLNVQTL, the Kd in assay [1] (setting [5]) amounted to 13.4 µM; in assay [2] (setting [5]), 7.4 µM; in assay [3] (setting [5]), 5.07 µM.

For DVLPFDIKYI, the figures for the Kd in assay [1] (setting [5]), in assay [2] (setting [5]) and in assay [3] (setting [5]) were 1.11 µM, 1.2 µM and 0.188 µM, respectively.

Turning to DVNEEYTEAA, the Kd is at least 59.2 µM in assay [1] (setting [5]), at least 46.3 µM in assay [2] (setting [5]) and at least 28.8 µM in assay [3] (setting [5]).

In the case of ETDDDGNYPL, the Kd in assay [1] (setting [5]) was 1.16 µM; in assay [2] (setting [5]), 3.59 µM; in assay [3] (setting [5]) it was at least 28.2 µM.

On to ETNIGCAVNT, for which the Kd in assay [1] (setting [5]) was at least 69.8 µM; in assay [2] (setting [5]) it was at least 70 µM; in assay [3] (setting [5]), at least 37 µM.

Consider ETVKMGAFM, for which the dissociation constant Kd in assay [1] (setting [5]) was at least 40.4 µM; in assay [2] (setting [5]), 15 µM; in assay [3] (setting [5]), 7.43 µM.

On to FIDRGSIKI, for which the figures for the Kd in assay [1] (setting [5]), in assay [2] (setting [5]) and in assay [3] (setting [5]) were 4.03 µM, 9.72 µM and 12.2 µM, respectively.

Regarding FLPQIGGEA, the Kd in assay [1] (setting [5]) is 0.0958 µM; in assay [2] (setting [5]), 0.0211 µM; in assay [3] (setting [5]) it was 0.121 µM.

Take GIDTSNNIA: the Kd was at least 25.2 µM in assay [1] (setting [5]), at least 49.7 µM in assay [2] (setting [5]) and at least 71.4 µM in assay [3] (setting [5]).

Take GIRCVSNLDI: the results for the Kd in assay [1] (setting [5]), in assay [2] (setting [5]) and in assay [3] (setting [5]) were at least 32.9 µM, at least 20.1 µM and 3.87 µM, respectively.

In the case of GLESIEQNLT, the dissociation constant (Kd) is at least 69.8 µM in assay [1] (setting [5]), 7.02 µM in assay [2] (setting [5]) and at least 61.3 µM in assay [3] (setting [5]).

In the case of GLVSLLGSA, the Kd in assay [3] (source organism: Dengue virus 4 Philippines/H241/1956) was found to be 0.00412 µM.

HILHAYCGI: the Kd in assay [1] (setting [5]) was determined as 0.359 µM; in assay [2] (setting [5]) it was 0.123 µM; in assay [3] (setting [5]) it was 0.0665 µM.

On to HINDQKFDDV, for which the Kd was found to be 1.19 µM in assay [1] (setting [5]), 5.86 µM in assay [2] (setting [5]) and 1.16 µM in assay [3] (setting [5]).

Turning to IIAVFDSKLI, the Kd turned out to be 8.51 µM in assay [1] (setting [5]), 0.758 µM in assay [2] (setting [5]) and 0.595 µM in assay [3] (setting [5]).

For IISTDQDTML, the Kd in assay [1] (setting [5]) came to 0.666 µM; in assay [2] (setting [5]), 0.451 µM; in assay [3] (setting [5]), 1.81 µM.

As to ITGNKVKTEL, the Kd in assay [1] (setting [5]) is at least 69.8 µM; in assay [2] (setting [5]), at least 70 µM; in assay [3] (setting [5]), at least 70.4 µM.

For IVAMLLTHGA, the results for the Kd in assay [1] (setting [5]), in assay [2] (setting [5]) and in assay [3] (setting [5]) were 0.0822 µM, 1.16 µM and 0.153 µM, respectively.

As to IVSRSSRGV, the Kd was found to be 0.476 µM in assay [1] (setting [5]), 0.264 µM in assay [2] (setting [5]) and 13.2 µM in assay [3] (setting [5]).

KIDKLTFQI: the Kd turned out to be 0.0419 µM in assay [1] (setting [5]), 0.141 µM in assay [2] (setting [5]) and 10.6 µM in assay [3] (setting [5]).

In the case of KVEKYLPEVI, the Kd in assay [1] (setting [5]) came to 0.734 µM; in assay [2] (setting [5]), 12.1 µM; in assay [3] (setting [5]), 12.4 µM.

Consider LIYYQNEVT, for which the Kd is 8.51 µM in assay [1] (setting [5]), 14 µM in assay [2] (setting [5]) and 5.21 µM in assay [3] (setting [5]).

LLFLVLIMLI: the Kd in assay [1] (setting [6]) stood at 8.3 µM; in assay [2] (setting [6]), 0.447 µM; in assay [3] (setting [6]), 3.15 µM.

Take LLFMILTVAA: the Kd in assay [3] (setting [7]) is 0.468 µM.

As to LLMLVTPSMA, in assay [3] (setting [7]), the Kd is 0.0236 µM.

Regarding LLNETAKVI, the Kd in assay [1] (setting [5]) came out at 15.4 µM; in assay [2] (setting [5]), 0.319 µM; in assay [3] (setting [5]), 0.0714 µM.

As to MAEFEDQLV, the Kd in assay [1] (setting [5]) was 5.51 µM; in assay [2] (setting [5]) it was 0.165 µM; in assay [3] (setting [5]), 0.641 µM.

Take MLHNPTSET: the Kd in assay [1] (setting [5]) is at least 77.1 µM; in assay [2] (setting [5]), 4.21 µM; in assay [3] (setting [5]), 0.184 µM.

Consider NIVASVNMV, for which the Kd in assay [3] (source organism: Dengue virus 3 Martinique/1243/1999) came out at 0.0829 µM.

In the case of NIVTFINDYA, the figures for the equilibrium dissociation constant (Kd) in assay [1] (setting [5]), in assay [2] (setting [5]) and in assay [3] (setting [5]) were 0.351 µM, 0.0618 µM and 0.245 µM, respectively.

As for NMWREILSNT, the Kd in assay [1] (setting [5]) was found to be 12 µM; in assay [2] (setting [5]) it was 6.06 µM; in assay [3] (setting [5]), 0.0561 µM.

For the sequence NTLIQYRQQL, the Kd in assay [1] (setting [5]) is at least 20.9 µM; in assay [2] (setting [5]) it was 6.37 µM; in assay [3] (setting [5]), 10.1 µM.

On to NVKSKLLWFL, for which the values for the Kd in assay [1] (setting [5]), in assay [2] (setting [5]) and in assay [3] (setting [5]) were at least 31 µM, 2.29 µM and 0.633 µM, respectively.

For PASKKESVI, the Kd in assay [1] (setting [5]) was determined as 10.3 µM; in assay [2] (setting [5]) it was 1.35 µM; in assay [3] (setting [5]) it was 1.76 µM.

As for PTWLGAAITL, the values for the Kd in assay [1] (setting [5]), in assay [2] (setting [5]) and in assay [3] (setting [5]) were 1.77 µM, 1.36 µM and 1.01 µM, respectively.

Consider QIYLSDSDNI, for which the Kd is 14.9 µM in assay [1] (setting [5]), 1.24 µM in assay [2] (setting [5]) and 19.6 µM in assay [3] (setting [5]).

With QMAGVEVRYI, the figures for the Kd in assay [1] (setting [5]), in assay [2] (setting [5]) and in assay [3] (setting [5]) were 0.0448 µM, 0.000208 µM and 0.000138 µM, respectively.

Regarding QQFANVISKI, the Kd was 0.863 µM in assay [1] (setting [5]), 0.0515 µM in assay [2] (setting [5]) and 0.0017 µM in assay [3] (setting [5]).

Consider RAGYSIVEL, for which the results for the Kd in assay [1] (setting [5]), in assay [2] (setting [5]) and in assay [3] (setting [5]) were 5.07 µM, 4.94 µM and 5.39 µM, respectively.

Consider RLRQDTEDI, for which the Kd in assay [1] (setting [5]) came to 4.58 µM; in assay [2] (setting [5]) it was 0.23 µM; in assay [3] (setting [5]), 0.387 µM.

Take RQDYRRSINV: the Kd stood at 2.22 µM in assay [1] (setting [5]), 1.01 µM in assay [2] (setting [5]) and 0.375 µM in assay [3] (setting [5]).

In assay [4] (source organism: Cryptosporidium parvum), RTWFHGSLY had a Kd of 0.0131 µM.

As to RVTDMAPFK, the Kd in assay [4] (source organism: Listeria monocytogenes) was found to be 0.404 µM.

With SIGFEARIV, the Kd in assay [1] (setting [5]) turned out to be 1.31 µM; in assay [2] (setting [5]) it was 10.1 µM; in assay [3] (setting [5]), 0.575 µM.

For SIISLFYTFA, the values for the Kd in assay [1] (setting [5]), in assay [2] (setting [5]) and in assay [3] (setting [5]) were 0.0936 µM, 0.111 µM and 0.0281 µM, respectively.

As to SMKGENVFI, the Kd is 13.7 µM in assay [1] (setting [5]), 0.00548 µM in assay [2] (setting [5]) and 0.0189 µM in assay [3] (setting [5]).

In the case of STSPTRTWKV, the Kd in assay [1] (setting [5]) stood at 0.504 µM; in assay [2] (setting [5]) it was 0.397 µM; in assay [3] (setting [5]), 0.717 µM.

On to TLLIKTLSPA, for which the Kd in assay [1] (setting [5]) stood at 0.000728 µM; in assay [2] (setting [5]) it was 0.00105 µM; in assay [3] (setting [5]), 0.00117 µM.

As for TLLNETAKVI, the values for the Kd in assay [1] (setting [5]), in assay [2] (setting [5]) and in assay [3] (setting [5]) were 8.55 µM, 2.86 µM and 2.13 µM, respectively.

For TLNEDLLEI, the Kd in assay [1] (setting [6]) was 0.0563 µM; in assay [2] (setting [6]) it was 0.00145 µM; in assay [3] (setting [6]) it was 0.00224 µM.

With TLYAVATTVI, the Kd in assay [3] (setting [7]) amounted to 0.195 µM.

For VIPDELIDVL, the Kd in assay [1] (setting [5]) came to 0.298 µM; in assay [2] (setting [5]) it was 2.49 µM; in assay [3] (setting [5]) it was 4.59 µM.

Consider VIRNEVNDT, for which the Kd is at least 77.1 µM in assay [1] (setting [5]), 19.9 µM in assay [2] (setting [5]) and 0.82 µM in assay [3] (setting [5]).

As for VLTILYYGA, the Kd in assay [1] (setting [5]) was 6.24 µM; in assay [2] (setting [5]), 0.00132 µM; in assay [3] (setting [5]), 0.0175 µM.

For YCLDFLFDV, the Kd in assay [1] (setting [8]) was at least 77 µM; in assay [2] (setting [8]), 17.3 µM; in assay [3] (setting [8]), at least 78.1 µM.

Turning to YLRLYIILA, the Kd in assay [1] (setting [9]) came out at 4.18 µM; in assay [2] (setting [9]), 0.00826 µM; in assay [3] (setting [9]) it was 0.0524 µM.

As to YMSNLFDIPL, the Kd amounted to 0.127 µM in assay [1] (setting [5]), 0.0192 µM in assay [2] (setting [5]) and 0.0102 µM in assay [3] (setting [5]).

YTISSESLV: the results for the Kd in assay [1] (setting [5]), in assay [2] (setting [5]) and in assay [3] (setting [5]) were 0.0536 µM, 0.522 µM and 0.0376 µM, respectively.

YTVEFDRDKV: the Kd in assay [1] (setting [5]) worked out at 0.022 µM; in assay [2] (setting [5]), 0.0826 µM; in assay [3] (setting [5]) it was 0.154 µM.

These data come from the Immune Epitope Database (IEDB).
